Reference: the supplement of paper PMC10567573

B1: POMT2 (parent)
chain: YHEAPMTRKHYQVTGYGINGTGDS

Variants of: B1
Assay: protein stability index of a GFP-peptide fusion (GPS, HEK-293T) (PSI 1-6); higher = more stable
Conditions: c terminus: a fixed tail appended
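Also: lentivirally expressed fusions sorted by FACS into six bins by GFP to DsRed ratio, PSI derived from sequencing read proportions per bin multiplied by bin number.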

Variant	protein stability index
YHEAPMKRKHYQVTGYGINGTGDS [T7K]	1.86
YHEAPMGRKHYQVTGYGINGTGDS [T7G]	2.08
YHEAPMHRKHYQVTGYGINGTGDS [T7H]	2.03
YHEAPMIRKHYQVTGYGINGTGDS [T7I]	2.45
YHEAPMYRKHYQVTGYGINGTGDS [T7Y]	1.47
YHEAPMSRKHYQVTGYGINGTGDS [T7S]	2.3
YHEAPMERKHYQVTGYGINGTGDS [T7E]	2.39
YHEAPMLRKHYQVTGYGINGTGDS [T7L]	1.79
YHEAPMCRKHYQVTGYGINGTGDS [T7C]	2.2
YHEAPMMRKHYQVTGYGINGTGDS [T7M]	2.17
YHEAPMWRKHYQVTGYGINGTGDS [T7W]	3.27
YHEAPMPRKHYQVTGYGINGTGDS [T7P]	2.42
YHEAPMARKHYQVTGYGINGTGDS [T7A]	2.33
YHEAPMNRKHYQVTGYGINGTGDS [T7N]	1.82
YHEAPMFRKHYQVTGYGINGTGDS [T7F]	1.92
YHEAPMDRKHYQVTGYGINGTGDS [T7D]	2.66
YHEAPMRRKHYQVTGYGINGTGDS [T7R]	1.87
YHEAPMQRKHYQVTGYGINGTGDS [T7Q]	2.57
YHEASMTRKHYQVTGYGINGTGDS [P5S]	2.69
YHEAEMTRKHYQVTGYGINGTGDS [P5E]	3.17
YHEARMTRKHYQVTGYGINGTGDS [P5R]	2.29
YHEAAMTRKHYQVTGYGINGTGDS [P5A]	2.62
YHEAGMTRKHYQVTGYGINGTGDS [P5G]	2.51
YHEANMTRKHYQVTGYGINGTGDS [P5N]	2.32

Variant	protein stability index
YHEATMTRKHYQVTGYGINGTGDS [P5T]	2.02
YHEAFMTRKHYQVTGYGINGTGDS [P5F]	2.77
YHEALMTRKHYQVTGYGINGTGDS [P5L]	1.89
YHEAYMTRKHYQVTGYGINGTGDS [P5Y]	1.73
YHEAWMTRKHYQVTGYGINGTGDS [P5W]	1.63
YHEAVMTRKHYQVTGYGINGTGDS [P5V]	2.14
YHEAHMTRKHYQVTGYGINGTGDS [P5H]	2.74
YHEADMTRKHYQVTGYGINGTGDS [P5D]	2.72
YHEAKMTRKHYQVTGYGINGTGDS [P5K]	2.36
YHEAIMTRKHYQVTGYGINGTGDS [P5I]	3.27
YHEAQMTRKHYQVTGYGINGTGDS [P5Q]	2.84
YHEACMTRKHYQVTGYGINGTGDS [P5C]	2.31
YHEAMMTRKHYQVTGYGINGTGDS [P5M]	2.79
YHEAPMTRKHTQVTGYGINGTGDS [Y11T]	3.17
YHEAPMTRKHKQVTGYGINGTGDS [Y11K]	3.14
YHEAPMTRKHFQVTGYGINGTGDS [Y11F]	2.01
YHEAPMTRKHVQVTGYGINGTGDS [Y11V]	3.22
YHEAPMTRKHDQVTGYGINGTGDS [Y11D]	3.77
YHEAPMTRKHWQVTGYGINGTGDS [Y11W]	1.7
YHEAPMTRKHAQVTGYGINGTGDS [Y11A]	3.38
YHEAPMTRKHQQVTGYGINGTGDS [Y11Q]	3.57
YHEAPMTRKHEQVTGYGINGTGDS [Y11E]	3.98
YHEAPMTRKHHQVTGYGINGTGDS [Y11H]	2.93
YHEAPMTRKHPQVTGYGINGTGDS [Y11P]	3.14

Variant	protein stability index
YHEAPMTRKHSQVTGYGINGTGDS [Y11S]	3.03
YHEAPMTRKHLQVTGYGINGTGDS [Y11L]	2.75
YHEAPMTRKHIQVTGYGINGTGDS [Y11I]	2.77
YHEAPMTRKHRQVTGYGINGTGDS [Y11R]	2.56
YHEAPMTRKHGQVTGYGINGTGDS [Y11G]	3.23
YHEAPMTRKHMQVTGYGINGTGDS [Y11M]	2.98
YHEAPMTRKHNQVTGYGINGTGDS [Y11N]	3.15
YHEAPMTRKHCQVTGYGINGTGDS [Y11C]	3.06
YHEAPMTRKRYQVTGYGINGTGDS [H10R]	1.94
YHEAPMTRKYYQVTGYGINGTGDS [H10Y]	1.33
YHEAPMTRKVYQVTGYGINGTGDS [H10V]	1.91
YHEAPMTRKNYQVTGYGINGTGDS [H10N]	2.92
YHEAPMTRKCYQVTGYGINGTGDS [H10C]	2.66
YHEAPMTRKQYQVTGYGINGTGDS [H10Q]	2.87
YHEAPMTRKGYQVTGYGINGTGDS [H10G]	3.05
YHEAPMTRKMYQVTGYGINGTGDS [H10M]	1.94
YHEAPMTRKLYQVTGYGINGTGDS [H10L]	1.51
YHEAPMTRKAYQVTGYGINGTGDS [H10A]	1.86
YHEAPMTRKIYQVTGYGINGTGDS [H10I]	2.79
YHEAPMTRKDYQVTGYGINGTGDS [H10D]	3.54
YHEAPMTRKWYQVTGYGINGTGDS [H10W]	2.49
YHEAPMTRKPYQVTGYGINGTGDS [H10P]	2.37
YHEAPMTRKFYQVTGYGINGTGDS [H10F]	2.5
YHEAPMTRKEYQVTGYGINGTGDS [H10E]	3.02

Variant	protein stability index
YHEAPMTRKKYQVTGYGINGTGDS [H10K]	2.58
YHEAPMTRKTYQVTGYGINGTGDS [H10T]	2.08
YHEAPMTRKSYQVTGYGINGTGDS [H10S]	2.36
YHEAPSTRKHYQVTGYGINGTGDS [M6S]	2.59
YHEAPRTRKHYQVTGYGINGTGDS [M6R]	2.7
YHEAPVTRKHYQVTGYGINGTGDS [M6V]	2.67
YHEAPNTRKHYQVTGYGINGTGDS [M6N]	2.15
YHEAPYTRKHYQVTGYGINGTGDS [M6Y]	1.98
YHEAPCTRKHYQVTGYGINGTGDS [M6C]	2
YHEAPTTRKHYQVTGYGINGTGDS [M6T]	2.43
YHEAPFTRKHYQVTGYGINGTGDS [M6F]	1.82
YHEAPWTRKHYQVTGYGINGTGDS [M6W]	1.42
YHEAPHTRKHYQVTGYGINGTGDS [M6H]	1.69
YHEAPETRKHYQVTGYGINGTGDS [M6E]	2.56
YHEAPPTRKHYQVTGYGINGTGDS [M6P]	2.55
YHEAPGTRKHYQVTGYGINGTGDS [M6G]	2.38
YHEAPDTRKHYQVTGYGINGTGDS [M6D]	2.36
YHEAPKTRKHYQVTGYGINGTGDS [M6K]	2.55
YHEAPQTRKHYQVTGYGINGTGDS [M6Q]	2.68
YHEAPATRKHYQVTGYGINGTGDS [M6A]	2.48
YHEAPITRKHYQVTGYGINGTGDS [M6I]	2.83
YHEAPLTRKHYQVTGYGINGTGDS [M6L]	2.41
